This passage reports Kd, koff and kon results from patent publication US20240209062A1 (INVETX, published 2024).

B1: IgG with feline IgG1a Fc variant S252M, Q311V (antibody)
heavy: DVQLVESGGDLVKPGGSLRLTCVASGLSLTSDSMSWVRQAPGKGLQWVSTLWSNRGTYYTDSVKGRFTISKDNAENTLYLQMNNLKTEDTATYYCASIYYYEADYLHWYFDFWGQGALVTVSSASTTAPSVFPLAPSCGTTSGATVALACLVLGYFPEPVTVSWNSGALTSGVHTFPAVLQASGLYSLSSMVTVPSSRWLSDTFTCNVAHPPSNTKVDKTVRKTDHPPGPKPCDCPKCPPPEAAGGPSIFIFPPKPKDTLMISRTPEVTCLVVDLGPDDSDVQITWFVDNTQVYTAKTSPREEQFNSTYRVVSVLPILHVDWLKGKEFKCKVNSKSLPSPIERTISKAKGQPHEPQVYVLPPAQEELSRNKVSVTCLIKSFHPPDIAVEWEITGQPEPENNYRTTPPQLDSDGTYFVYSKLSVDRSHWQRGNTYTCSVSHEALHSHHTQKSLTQSPG
light: EIQMTQSPTSLSASVGDRVTITCRASEGIANNLSWYQQTPGKAPKLLIYATSNLHSGVPSRFSGSGSGTDFTLTISSLQPEDFATYYCQQGFKWPLTFGGGTKLEITRSDAQPSVFLFQPSLDELHTGSASIVCILNDFYPKEVNVKWKVDGVVQNKGIQESTTEQNSKDSTYSLSSTLTMSSTEYQSHEKFSCEVTHKSLASTLVKSFNRSECQRE
notes: IgG1a constant domain with MALA mutations (M234A, L244A as printed); variable domains from WO 2023/97275
B2: IgG with feline IgG1a Fc variant S252M, R392D (antibody)
heavy: B1 heavy with V320Q, R403D
light: B1 light
notes: as for B1
B3: IgG with feline IgG1a Fc variant S252Y (antibody)
heavy: B1 heavy with M261Y, V320Q
light: B1 light
notes: as for B1
B4: IgG with feline IgG1a Fc variant S252M, R301Y (antibody)
heavy: B1 heavy with R310Y, V320Q
light: B1 light
notes: as for B1
B5: IgG with feline IgG1a Fc variant S252Y, I377L (antibody)
heavy: B1 heavy with M261Y, V320Q, I386L
light: B1 light
notes: Printed '1377L' read as I377L; IgG1a constant domain with MALA mutations (M234A, L244A as printed); variable domains from WO 2023/97275; also called S252Y, 1377L
B6: IgG with feline IgG1a Fc variant S252M, R301V (antibody)
heavy: B1 heavy with R310V, V320Q
light: B1 light
notes: as for B1
B7: IgG with feline IgG1a Fc variant S252Y, T286E (antibody)
heavy: B1 heavy with M261Y, T295E, V320Q
light: B1 light
notes: as for B1
B8: IgG with feline IgG1a Fc variant S252M, R301L (antibody)
heavy: B1 heavy with R310L, V320Q
light: B1 light
notes: as for B1
B9: IgG with feline IgG1a Fc variant S252Y, L309D (antibody)
heavy: B1 heavy with M261Y, L318D, V320Q
light: B1 light
notes: as for B1
B10: IgG with feline IgG1a Fc variant S252Y, R301V (antibody)
heavy: B1 heavy with M261Y, R310V, V320Q
light: B1 light
notes: as for B1
B11: IgG with feline IgG1a Fc variant S252Y, T286D (antibody)
heavy: B1 heavy with M261Y, T295D, V320Q
light: B1 light
notes: as for B1
B12: IgG with feline IgG1a Fc variant S252Y, R392D (antibody)
heavy: B1 heavy with M261Y, V320Q, R403D
light: B1 light
notes: as for B1
B13: IgG with feline IgG1a Fc variant S252Y, I377Y (antibody)
heavy: B1 heavy with M261Y, V320Q, I386Y
light: B1 light
notes: Printed '1377Y' read as I377Y; IgG1a constant domain with MALA mutations (M234A, L244A as printed); variable domains from WO 2023/97275; also called S252Y, 1377Y
B14: IgG with feline IgG1a Fc variant S252M, R392E (antibody)
heavy: B1 heavy with V320Q, R403E
light: B1 light
notes: as for B1
B15: IgG with feline IgG1a Fc variant S252Y, R301Y (antibody)
heavy: B1 heavy with M261Y, R310Y, V320Q
light: B1 light
notes: as for B1
B16: IgG with feline IgG1a Fc variant S252Y, L309V (antibody)
heavy: B1 heavy with M261Y, L318V, V320Q
light: B1 light
notes: as for B1
B17: IgG with feline IgG1a Fc variant S428L (antibody)
heavy: B1 heavy with M261S, V320Q, S439L
light: B1 light
notes: as for B1
B18: IgG with feline IgG1a Fc variant S428L, I377L (antibody)
heavy: B1 heavy with M261S, V320Q, I386L, S439L
light: B1 light
notes: Printed '1377L' read as I377L; IgG1a constant domain with MALA mutations (M234A, L244A as printed); variable domains from WO 2023/97275; also called S428L, 1377L
B19: IgG with feline IgG1a Fc variant S252M, T286E (antibody)
heavy: B1 heavy with T295E, V320Q
light: B1 light
notes: as for B1
B20: IgG with feline IgG1a Fc variant S252Y, R392E (antibody)
heavy: B1 heavy with M261Y, V320Q, R403E
light: B1 light
notes: as for B1
B21: IgG with feline IgG1a Fc variant S252M, T286D (antibody)
heavy: B1 heavy with T295D, V320Q
light: B1 light
notes: as for B1
B22: IgG with feline IgG1a Fc variant S252Y, R301L (antibody)
heavy: B1 heavy with M261Y, R310L, V320Q
light: B1 light
notes: as for B1

Changes are numbered by the printed parent chain. Numbers in names are those of the source.

For this assay, the target named is T1, feline FcRn (soluble portion of large subunit p51 isoform X1 with C-terminal 6xHis-tag, co-expressed with … (feline, UniProt Q5MGS7 21-118)).
T1 construct: Heterodimer made by co-expression in CHO cells, purified on HisTrap FF; also called FcRn complex
T1 sequence (chain, as listed by the source limits assumed, chain 1 of 2): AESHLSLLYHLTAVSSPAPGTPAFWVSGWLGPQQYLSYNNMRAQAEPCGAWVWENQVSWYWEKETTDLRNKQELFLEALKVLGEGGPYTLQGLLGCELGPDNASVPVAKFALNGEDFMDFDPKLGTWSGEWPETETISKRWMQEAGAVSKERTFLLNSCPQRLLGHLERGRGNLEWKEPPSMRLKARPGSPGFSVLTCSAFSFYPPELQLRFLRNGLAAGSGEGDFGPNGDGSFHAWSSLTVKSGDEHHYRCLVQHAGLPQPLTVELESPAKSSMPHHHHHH
T1 sequence (Q5MGS7 other isoform, or with tags, fused parts or gaps limits assumed, chain 2 of 2): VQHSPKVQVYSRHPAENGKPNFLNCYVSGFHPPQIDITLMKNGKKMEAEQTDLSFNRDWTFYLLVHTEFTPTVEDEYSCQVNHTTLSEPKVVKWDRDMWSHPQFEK
The assay can be described thus: SPR, Biacore T200, IgG captured on Protein L chip, feline FcRn flowed over, pH 5.9, 1:1 fit. As to the method:
The feline FcRn binding experiments at pH 5.9 were completed on a BIACORE™ T200 instrument. A Series S Protein L Sensor chip (Cytiva, Cat. No. BR29205137) was used to capture the antibody variants via the kappa (κ) light chain. The feline variants were captured onto the protein L chip at a flow rate of 10 μL/min for 60 seconds. 1×PBX-P+(Cytiva Cat 28995084) was adjusted to pH 5.9 for the running buffer. The feline FcRn was flowed over the sensor chip at 30 μL/min for 120 seconds contact time and 600 seconds dissociation time. Regeneration of the flow cells was completed by flowing over 10 mM glycine, pH 1.7 at 30 μL/min for 30 seconds. The data were evaluated by the BIACORE™T200 Evaluation software v3.2.1 by fitting to a 1:1 kinetic interaction model.
(In general: In SPR one partner is held on a chip, and binding of the other changes the refractive index at the surface.)
As usually defined, the Kd is a measure of binding affinity in units of concentration. The low end stands for a tighter complex, the high end for a looser complex. The koff is the first-order rate constant of dissociation. Higher therefore signals a short-lived complex. In general, kon refers to the rate constant with which the complex forms. Read a low kon as slower complex formation. B1 gave a Kd of 152 nM, an off-rate constant (koff) of 0.121 s⁻¹ and an association rate constant (kon) of 865000 M⁻¹ s⁻¹.

As for B2, the dissociation constant Kd turned out to be 268 nM, the koff worked out at 0.229 s⁻¹ and the kon came out at 856000 M⁻¹ s⁻¹.

For B3, the affinity, expressed as Kd, was 36.1 nM; the koff stood at 0.0268 s⁻¹; the kon was 742000 M⁻¹ s⁻¹.

As to B4, the Kd worked out at 258 nM, the koff was 0.18 s⁻¹ and the kon came out at 695000 M⁻¹ s⁻¹.

B5: the affinity, expressed as Kd, was 31.5 nM; the koff is 0.0224 s⁻¹; the kon amounted to 712000 M⁻¹ s⁻¹.

Turning to B6, the dissociation constant Kd is 278 nM, the koff turned out to be 0.206 s⁻¹ and the kon was 745000 M⁻¹ s⁻¹.

B7 yielded a dissociation constant Kd of 12.1 nM, an off-rate (koff) of 0.00783 s⁻¹ and a kon of 650000 M⁻¹ s⁻¹.

Molecule B8 registered a dissociation constant (Kd) of 280 nM, an off-rate (koff) of 0.332 s⁻¹ and a kon of 1.2e+06 M⁻¹ s⁻¹.

In turn, B9 had a Kd of 56.7 nM, a koff of 0.0284 s⁻¹ and a kon of 502000 M⁻¹ s⁻¹.

Turning to B10, the Kd stood at 38.7 nM, the koff is 0.028 s⁻¹ and the kon worked out at 724000 M⁻¹ s⁻¹.

The molecule B11 registered a dissociation constant (Kd) of 15.2 nM, a koff of 0.00955 s⁻¹ and a kon of 631000 M⁻¹ s⁻¹.

For B12, the Kd worked out at 25 nM, the koff came out at 0.0296 s⁻¹ and the kon was 1.19e+06 M⁻¹ s⁻¹.

Turning to B13, the Kd was determined as 36.1 nM, the off-rate constant (koff) amounted to 0.0258 s⁻¹ and the kon was 716000 M⁻¹ s⁻¹.

Consider B14, for which the affinity, expressed as Kd, was 186 nM; the koff came to 0.177 s⁻¹; the kon amounted to 965000 M⁻¹ s⁻¹.

B15 came in with a Kd of 37.6 nM, a koff of 0.0262 s⁻¹ and an on-rate (kon) of 696000 M⁻¹ s⁻¹.

In the case of B16, binding was put at a Kd of 18.7 nM, the koff came out at 0.0139 s⁻¹ and the kon worked out at 747000 M⁻¹ s⁻¹.

Regarding B17, the Kd is 64 nM, the koff is 0.0619 s⁻¹ and the kon was found to be 968000 M⁻¹ s⁻¹.

B18: the Kd was found to be 87.7 nM, the koff was 0.0723 s⁻¹ and the kon stood at 819000 M⁻¹ s⁻¹.

On to B19, for which the Kd is 101 nM, the koff worked out at 0.0719 s⁻¹ and the kon was determined as 715000 M⁻¹ s⁻¹.

B20: the Kd is 24.1 nM, the koff worked out at 0.0287 s⁻¹ and the kon was found to be 1.19e+06 M⁻¹ s⁻¹.

Take B21: binding was characterised by a dissociation constant (Kd) of 123 nM, the koff was determined as 0.105 s⁻¹ and the kon was 850000 M⁻¹ s⁻¹.

As to B22, the Kd is 38.8 nM, the koff worked out at 0.0277 s⁻¹ and the kon was found to be 714000 M⁻¹ s⁻¹.
